The target in experiment [1] is recombinant Ara h 1 protein with N-terminal His-tag (peanut (Arachis hypogaea)). Nature of the experiment: native gel or EMSA; native-PAGE of the purified allergen, nondenaturing; oligomeric state from the estimated molecular mass (Fig. S1).
The target in experiment [2] is natural Ara h 1 protein (peanut (Arachis hypogaea)). Described as above.

For two substances, stoichiometry N results are on record in publication PMC12718106.

On to “recombinant Ara h 1 protein with N-terminal His-tag (natural protein)”, for which the stoichiometry N in experiment [1] is 3.

For the substance “natural Ara h 1 protein (natural protein)”, the stoichiometry N in experiment [2] was 3.

Broadly, the stoichiometry N is the number of molecules, sites or subunits per partner or assembly.
